Assay results: the supplement of paper PMC9170038

Test system: MS2 coat protein
Experiment: apparent KD of MS2 coat protein; designed switch direction (-1 OFF switch, 1 ON switch): -1; higher = weaker reporter binding
Summary of the method: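 The apparent KD reported per design is the median over clusters of curve fits to normalised cluster fluorescence. The RNA switches were transcribed on Illumina chips by stalled E. coli RNA polymerase. SNAP-549-labelled MS2 coat protein was titrated from 0.7 or 1.5 nM, doubling up to 3 µM, in Tris-HCl pH 7.5 buffer containing KCl, MgCl2, BSA, DTT, tRNA and Tween-20, with no input, 200 uM small-molecule ligand, or an oligonucleotide input.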

[1] = Eterna round: R95, input ligand: FMN 200 uM
[2] = Eterna round: R95, input ligand: microRNA oligo, concentration not stated
[3] = Eterna round: R95, input ligand: none
[4] = input ligand: microRNA oligo, concentration not stated

Sequence	apparent KD of MS2 coat protein [1] [nM]	apparent KD of MS2 coat protein [2] [nM]	apparent KD of MS2 coat protein [3] [nM]	apparent KD of MS2 coat protein (input ligand: FMN 200 uM) [nM]	apparent KD of MS2 coat protein (input ligand: none) [nM]	apparent KD of MS2 coat protein [4] [nM]
GUGUAGCGAGGAUAUACAUGAGGAUCACCCAUGUGAAUAAGAUAGAAUAAGAUAAAGUGUAGAAGGUGUAGUGU [Excluse me!!! 11 - Jieux - Exclusion 3] (puzzle: Exclusion 3)	46.7	56	54.5	–	–	–
AUCCAACAUGAGGAUCACCCAUGUCAGGAUAUCUAGCGGUGCGGCAACCCGGGCGCGCGGAGAAGGGACAACGG [EX1 B.23] (Eterna round: R97, puzzle: Exclusion 1)	–	–	–	56.2	27.2	–
AGUACUAACAGCUGACUGUUAGUACUGUAGGUUUGUGUUACAUGAGGAUCACCCAUGUCCUCAUAGGCUCGUCUUGU [Mat - Sensor v3 - Turn-off var 2 - D97] (puzzle: Sensor v3, turn-off variant 2)	291	100	284	–	–	–
AAUACAAGCUAUUGAUCCCACAUGAGGAUCACCCAUGUGCCUGGCCGUGAGACCAGGUUUACAAUAGCUCGUCUUAU [Sensor-V1 #47] (Eterna round: R97, puzzle: Sensor, turn-off variant 1)	–	–	–	23.5	23.5	–
AGCACGCUUUUGCUCGAUCACAUGAGGAUCACCCAUGUGUGCUAAUAGGCCAAGGUGAAAGCCUCAGACAUAGUUUA [Eternabot (L1) Solution 1] (Eterna round: R97, puzzle: Sensor, turn-off variant 1)	–	–	–	153	173	–
CUGAGCAGACGGAGAUCCAACAUGAGGAUCACCCAUGUCUCAAAAGCUUUUUGCUCGUCUUAUCCUCCUCUGCUCUC [Orgeain] (puzzle: Sensor v3, turn-off variant 1)	14.8	31.6	14.1	–	–	–
UGCUGACGAGGAUAUACAUGAGGAUCACCCAUGUUGGUUCAGCGACGAUAGUCGCAAUGUAGAAGGUGUCAGCA [E3/9-B2] (Eterna round: R97, puzzle: Exclusion 3)	–	–	–	748	97.2	–
ACAAGCUCUGUGGGUGGUGACAUGAGGAUCACCCAUGUUUUGCUCGUCUUGUCCCGGGCCCGGCGCCCGGGCCCGGG [-40.4, -69.3, A 12%] (Eterna round: R97, puzzle: Sensor, turn-off variant 1)	–	–	–	625	1340	–
GAGGAGCAAGGAUAUACGAGGAUAGGGAAGGUUGGAGAGUGACAUGAGGAUCACCCAUGUAGAAGGUGCAAGGG [JR_Exclu2_Sub095] (puzzle: Exclusion 2)	–	108	–	–	–	–
UUGAAUUAUAAGGAUAUGGGAGUCGAUAGACACCCAGAAGGUAUAACAUGAGGAUCACCCAUGUGUCCUAUCAA [Mod of Eli 25 - Jieux - Exclusion 6] (Eterna round: R97, puzzle: Exclusion 6)	–	–	–	33.6	18.2	–
AGCUUUUUGUUCGUCUUACACAUGAGGAUCACCCAUGUGUCGGACCGCAUCGAUAGAUGUAGACCGAGAAGCAUGGG [Omdei Mir OFFv1 C9] (Eterna round: R97, puzzle: Sensor, turn-off variant 1)	–	–	–	95.6	98.9	–
CUAUUGUGAGGAUAUCAGGUGUGCUAGCGUACUGGUACAUCUGAGAAGGCACAUGAGGAUCACCCAUGUUUCUU [JL-ex4-3.20 Brourd mod] (puzzle: Exclusion 4)	–	18.4	–	–	–	–
AUAAUUAGUUCAGGAUAUCAGCACGAUUAGUGCUGAGAAGGGAACAUGAGGAUCACCCAUGUGAUCAAUAUUAUAAUUUUAAUU [ENG1/12-B1] (Eterna round: R96, puzzle: Exclusion NG 1)	–	–	–	281	1150	540
AACUAAACAUGAGGAUAUGCCUGGGAAGAACAGGCAGAAGGCGUGACAUGAGGAUCACCCAUGUAGCCGGGCUAUUCUCAUGCG [Cediceor] (Eterna round: R96, puzzle: Exclusion NG 1)	–	–	–	25.3	31.3	26.1
GGUUGGCGAGGAUAUACAUGAGGAUCACCCAUGUGAGAAGAAAAAGUGAGGAAGAAAAGUAGAAGGCGCUGACG [Mat - Exclusion 3 - Mod of Salish D1] (puzzle: Exclusion 3)	74	103	81.5	–	–	–
AAGUAUAGAGGAUAUAGUAGGUACAACAUGAGGAUCACCCAUGUUCUUCAUAACGUAUUUCUAGAAGGCUGAUAAA [EX-5 Malc#27] (puzzle: Exclusion 5)	–	174	–	–	–	–
GAUUGACAUGAGGAUCACCCAUGUGAGGAUAUCGGCCGGACCUUGUUAGCUUCCGUCGCGAGAAGGCGCAUAGG [Exclusion 1 V37] (puzzle: Exclusion 1)	62.6	39.9	33.2	–	–	–

Sequence	apparent KD of MS2 coat protein [1] [nM]	apparent KD of MS2 coat protein [2] [nM]	apparent KD of MS2 coat protein [3] [nM]	apparent KD of MS2 coat protein (input ligand: FMN 200 uM) [nM]	apparent KD of MS2 coat protein (input ligand: none) [nM]	apparent KD of MS2 coat protein [4] [nM]
ACAUGUACAGAGGAUAUGCGCCUUGGCAAUGGUGUAGAAGGCUGAACAUGAGGAUCACCCAUGUGCAAUCCAAC [EX6 A.5] (Eterna round: R97, puzzle: Exclusion 6)	–	–	–	378	55.4	–
UGAGCUGAAGGAUAUGCGUAAUCACGGUGACGUGUAGAUCUACAUGAGGAUCACCCAUGUAGAAGGUCAGUUCU [Mat - Exclusion 2 - JL Mod - D33] (Eterna round: R97, puzzle: Exclusion 2)	–	–	–	17	16.1	–
CCGGAAUUGAAGGAUAUAGGAGUCGAUAGACACCUAGAAGGUCAGACAUGAGGAUCACCCAUGUGUCCUACCGG [Fiskers Ex 6 - 86] (puzzle: Exclusion 6)	27.4	21	17.4	–	–	–
AGUACUAACACGAAAGUGUUAGUACAAUAAGCUUGUGAUACAUGAGGAUCACCCAUGUCCUCAUAAGCUCGUCUUAU [salish99_TOv2_r3_045] (Eterna round: R96, puzzle: Sensor v3, turn-off variant 2)	–	–	–	23.7	24.2	714
AAAUACAGGUAAAGAUUCUACAUGAGGAUCACCCAUGUGCUCGUCUUAUAAAGUACUAUCACGAAAGUGAUAGUACA [Sensor 3, v1 - 40] (puzzle: Sensor v3, turn-off variant 1)	25.9	169	21.6	–	–	–
CAUAUGGGAGGAUAUGCAUAGAUAAAGAAACAUGUUCAACCACAUGAGGAUCACCCAUGUAGAAGGCCCAUAUG [Mat - Same state - Mayanna Mod - D102] (Eterna round: R96, puzzle: Exclusion 2)	–	–	–	266	32.8	22.7
GAAUAGGCAGGAUAUACAUGAGGAUCACCCAUGUGCAAGCGAAAGGUACGUGAACAACGUAGAAGGGCCUAAAC [ChP 13.04.2015 #10] (puzzle: Exclusion 3)	24.3	12.9	13.8	–	–	–
AUAAAUCAUGUAGGAUAUGCGUGGCGAAGCUAUGCAGAAGGACAUGAGGAUCACCCAUGUGCUUCCGUCUGCGUACAGACGGUA [Mat - Exclusion NG 1 - Mod of JL - D10] (Eterna round: R96, puzzle: Exclusion NG 1)	–	–	–	125	142	77.6
UUUGUUUGGUAGGAUAUCAACUAAGAGAGUGGCUGAGAAGGACCAACAUGAGGAUCACCCAUGUCGGUUCCGUU [EX6 C.15] (Eterna round: R97, puzzle: Exclusion 6)	–	–	–	16.2	14.8	–
ACCUCACAUGAGGAUCACCCAUGUCAGGAUAUAUUGUGCAAGCGCCGUGGCGUAUGUAGUAGAAGGGACGAAAC [Eternabot (L1) Solution 77] (Eterna round: R97, puzzle: Exclusion 1)	–	–	–	18.3	17.8	–
ACAUCACAUGAGGAUCACCCAUGUCAGGAUAUUCAGCGUAGCAUGCUACCUAACAUCAGAAGAAGGGACACGUA [First Design] (Eterna round: R97, puzzle: Exclusion 1)	–	–	–	64.5	68.2	–
GUUAACGUAGGAUAUUAGUACAUGCACAUGAGGAUCACCCAUGUUUAGUGGGUCUAGGAAUAAGAAGGGCGAUGAA [EX5 #22] (Eterna round: R97, puzzle: Exclusion 5)	–	–	–	472	567	–
ACAAGCUUUUUGUUCGUCUUAUAAUAUUCAAUAAAGAUAACAUGAGGAUCACCCAUGUAACAAAGACGGACUCAUGU [Sesor Array 16 - Jieux - Sensor v3, turn-off variant 2] (puzzle: Sensor v3, turn-off variant 2)	16.5	267	12.4	–	–	–
UAUUGAGAGCAGGAUAUAUUCCUGAUGUAUGAAGUAGAAGGGCUCACAUGAGGAUCACCCAUGUGAUCCUGAAU [Mat - Exclusion 6 - Eli Mod - D5] (Eterna round: R97, puzzle: Exclusion 6)	–	–	–	15.5	14	–
UCCAACCCUGUGAGGAUAUCGUCCAUUAUUUGUAACGAGAAGGCACAUGAGGAUCACCCAUGUUUUUUAUUUUU [JR_BMOE4_Sub080] (puzzle: Brourd's mod of Exclusion 4)	83.7	28	22.5	–	–	–
AGUUUACAUGAGGAUCACCCAUGUGAGGAUAUGGAUUCGCUGGCCGUAGCCAGUGGAUCCAGAAGGCGCAUGAU [JL-ex1-4.13] (Eterna round: R97, puzzle: Exclusion 1)	–	–	–	401	86.3	–
